Values of other authors, collected in article PMC12786138.
Several values for one entry are separate records, joined by “and”; a condition that tells them apart may be missing. Equal entries are not always repeated.

What was measured:
SIRPα (Homo sapiens) [1] = molecular target: SIRPα (Homo sapiens) (UniProt P78324); assay: SPR
SIRPα (Mus musculus) = SIRPα (Mus musculus) (UniProt P97797); assay: SPR
CD47 (Homo sapiens) = CD47 (Homo sapiens) (UniProt Q08722); assay: radiolabel competition
SIRPα (Homo sapiens) [2] = molecular target: SIRPα (Homo sapiens) (UniProt P78324); assay: colorimetric

SIRPα (Homo sapiens), sequence (P78324 31-373): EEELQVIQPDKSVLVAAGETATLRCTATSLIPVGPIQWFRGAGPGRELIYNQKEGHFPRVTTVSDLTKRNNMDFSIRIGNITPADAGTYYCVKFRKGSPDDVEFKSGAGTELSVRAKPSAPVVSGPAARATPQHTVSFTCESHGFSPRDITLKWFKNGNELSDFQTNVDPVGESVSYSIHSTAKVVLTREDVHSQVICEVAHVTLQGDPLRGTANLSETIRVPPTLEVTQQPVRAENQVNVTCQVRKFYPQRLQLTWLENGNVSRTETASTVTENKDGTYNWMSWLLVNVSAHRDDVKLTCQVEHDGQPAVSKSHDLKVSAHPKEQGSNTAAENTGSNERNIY
CD47 ECD (from UniProt Q08722), sequence (Q08722 19-323): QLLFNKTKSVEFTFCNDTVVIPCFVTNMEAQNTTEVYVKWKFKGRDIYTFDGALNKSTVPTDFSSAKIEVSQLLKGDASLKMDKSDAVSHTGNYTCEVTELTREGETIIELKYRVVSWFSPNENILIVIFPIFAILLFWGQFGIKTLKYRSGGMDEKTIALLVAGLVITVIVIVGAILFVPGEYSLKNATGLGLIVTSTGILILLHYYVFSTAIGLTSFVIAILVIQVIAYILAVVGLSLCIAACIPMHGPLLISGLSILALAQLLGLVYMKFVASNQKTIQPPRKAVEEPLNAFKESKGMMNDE
CD47 ECD (from UniProt Q61735), sequence (Q61735 19-303): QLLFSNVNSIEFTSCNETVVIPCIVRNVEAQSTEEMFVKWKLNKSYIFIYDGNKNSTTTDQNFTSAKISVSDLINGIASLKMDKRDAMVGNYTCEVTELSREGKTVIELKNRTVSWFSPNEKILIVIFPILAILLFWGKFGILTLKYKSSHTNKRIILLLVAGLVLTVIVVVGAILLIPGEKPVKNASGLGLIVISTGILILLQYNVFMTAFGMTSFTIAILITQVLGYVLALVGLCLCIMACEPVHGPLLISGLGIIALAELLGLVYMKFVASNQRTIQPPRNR
SIRPα (Mus musculus), sequence (P97797 32-373): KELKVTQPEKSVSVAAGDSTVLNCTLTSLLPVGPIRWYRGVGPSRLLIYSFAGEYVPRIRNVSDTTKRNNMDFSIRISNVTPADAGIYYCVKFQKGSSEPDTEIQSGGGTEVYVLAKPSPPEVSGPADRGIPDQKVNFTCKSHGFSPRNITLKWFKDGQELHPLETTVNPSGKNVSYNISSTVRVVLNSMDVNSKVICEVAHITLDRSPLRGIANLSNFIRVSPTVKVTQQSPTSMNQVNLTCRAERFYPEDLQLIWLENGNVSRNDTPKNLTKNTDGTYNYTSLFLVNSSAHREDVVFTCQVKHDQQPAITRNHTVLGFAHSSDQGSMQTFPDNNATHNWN
TSP1, sequence (P07996 19-1170): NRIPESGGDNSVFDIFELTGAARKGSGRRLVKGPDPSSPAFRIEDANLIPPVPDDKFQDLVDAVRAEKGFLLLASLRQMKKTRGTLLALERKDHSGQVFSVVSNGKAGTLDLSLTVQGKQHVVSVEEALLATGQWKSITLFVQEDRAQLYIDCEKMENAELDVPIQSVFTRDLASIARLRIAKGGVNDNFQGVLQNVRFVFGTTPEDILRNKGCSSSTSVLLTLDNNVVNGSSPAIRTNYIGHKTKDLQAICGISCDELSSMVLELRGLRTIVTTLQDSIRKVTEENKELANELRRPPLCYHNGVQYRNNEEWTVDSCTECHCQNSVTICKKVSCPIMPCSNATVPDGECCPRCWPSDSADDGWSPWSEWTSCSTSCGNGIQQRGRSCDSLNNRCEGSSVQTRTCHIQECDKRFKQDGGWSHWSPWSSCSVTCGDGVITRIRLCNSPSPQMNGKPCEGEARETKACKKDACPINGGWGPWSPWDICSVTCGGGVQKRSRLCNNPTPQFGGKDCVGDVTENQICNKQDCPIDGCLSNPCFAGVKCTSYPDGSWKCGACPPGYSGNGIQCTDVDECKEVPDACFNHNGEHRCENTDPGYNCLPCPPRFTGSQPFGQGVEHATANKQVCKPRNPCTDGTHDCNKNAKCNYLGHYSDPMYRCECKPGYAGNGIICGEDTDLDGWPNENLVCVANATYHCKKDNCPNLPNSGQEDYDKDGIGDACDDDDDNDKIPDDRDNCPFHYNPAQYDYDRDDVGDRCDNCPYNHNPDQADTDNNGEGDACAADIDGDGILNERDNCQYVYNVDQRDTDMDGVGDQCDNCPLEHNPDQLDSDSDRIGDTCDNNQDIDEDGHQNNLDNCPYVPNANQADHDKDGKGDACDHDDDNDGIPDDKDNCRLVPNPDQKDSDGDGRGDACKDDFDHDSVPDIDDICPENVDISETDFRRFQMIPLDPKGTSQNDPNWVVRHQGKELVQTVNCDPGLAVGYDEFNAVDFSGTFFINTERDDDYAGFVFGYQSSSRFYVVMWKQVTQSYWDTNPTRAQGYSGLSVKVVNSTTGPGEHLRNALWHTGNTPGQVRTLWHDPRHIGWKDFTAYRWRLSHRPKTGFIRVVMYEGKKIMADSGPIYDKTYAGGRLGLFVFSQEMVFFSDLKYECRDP
CD47 ECD-alkaline phosphatase ECD, sequence (Q08722 19-323): as the sequence (Q08722 19-323) above
CD47 (Homo sapiens), sequence (Q08722 19-323): as above

| Substance | Kd (SIRPα (Homo sapiens) [1]) | Kd (SIRPα (Mus musculus)) [nM] | Kd (CD47 (Homo sapiens)) [nM] | Kd (SIRPα (Homo sapiens) [2]) [nM] |
| --- | --- | --- | --- | --- |
| CD47 ECD (from UniProt Q61735) | > 30000 nM | 4700 | – | – |
| TSP1 (from UniProt P07996) | – | – | 0.012 | – |
| CD47 ECD-alkaline phosphatase ECD (from UniProt Q08722) | – | – | – | 10 |
| CD47 ECD (from UniProt Q08722) | 1200 nM and 1000 nM and 200 nM | 80 | – | – |
